Data from the supplement of paper PMC9112550, “Optimization of the antimicrobial peptide Bac7 by deep mutational scanning” (BMC Biology, 2022).

system: Escherichia coli TOP10; test: shrunken log2 fold change of peptide-encoding DNA abundance (4.5 h post-induction vs induction); higher = less antimicrobial activity (less host growth inhibition); conditions: time post-induction: 4.5 h; library: site-saturation at positions 5, 18, 19, 20
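Also: peptides expressed intracellularly from a pBAD plasmid library in pooled LB shake-flask culture, induced with 0.3% L-arabinose, DNA abundance read by NGS, three biological replicates, DESeq2 with apeglm shrinkage.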

| Sequence | shrunken log2 fold change |
| --- | --- |
| RRIRWRPPRLPRPRPRPLKHPRP | -0.623 |
| RRIRTRPPRLPRPRPRPVTAPRP | -0.0612 |
| RRIRQRPPRLPRPRPRPNPRPRP | 0.0565 |
| RRIRLRPPRLPRPRPRPCVWPRP | -0.0182 |
| RRIRFRPPRLPRPRPRPRVCPRP | 0.152 |
| RRIRGRPPRLPRPRPRPRDKPRP | 0.373 |
| RRIRCRPPRLPRPRPRPKGWPRP | 0.811 |
| RRIRLRPPRLPRPRPRPLSVPRP | -0.0123 |
| RRIRSRPPRLPRPRPRPVNQPRP | -0.155 |
| RRIRVRPPRLPRPRPRPNHEPRP | -0.547 |
| RRIRRRPPRLPRPRPRPPWFPRP | 0.479 |
| RRIRCRPPRLPRPRPRPWFGPRP | -0.374 |
| RRIRNRPPRLPRPRPRPAIEPRP | 0.00973 |
| RRIRERPPRLPRPRPRPGPYPRP | -0.208 |
| RRIRGRPPRLPRPRPRPTYSPRP | -0.0883 |
| RRIRDRPPRLPRPRPRPIRIPRP | -0.0935 |
| RRIRIRPPRLPRPRPRPCNMPRP | -0.0732 |
| RRIRERPPRLPRPRPRPGLFPRP | -0.0491 |
| RRIRRRPPRLPRPRPRPNPHPRP | 0.534 |
| RRIRNRPPRLPRPRPRPWTGPRP | -0.0655 |
| RRIRGRPPRLPRPRPRPAFTPRP | 0.436 |
| RRIRIRPPRLPRPRPRPLHHPRP | -0.148 |
| RRIRQRPPRLPRPRPRPDEQPRP | 0.0145 |
| RRIRPRPPRLPRPRPRPYFVPRP | -0.488 |
| RRIRPRPPRLPRPRPRPTEYPRP | -0.264 |

| Sequence | shrunken log2 fold change |
| --- | --- |
| RRIRIRPPRLPRPRPRPAILPRP | 0.089 |
| RRIRSRPPRLPRPRPRPSSIPRP | -0.379 |
| RRIRTRPPRLPRPRPRPERIPRP | -0.18 |
| RRIRTRPPRLPRPRPRPPFTPRP | 0.0073 |
| RRIRLRPPRLPRPRPRPIVSPRP | -0.0372 |
| RRIRMRPPRLPRPRPRPVRCPRP | 0.117 |
| RRIRPRPPRLPRPRPRPFVDPRP | -0.319 |
| RRIRHRPPRLPRPRPRPKTHPRP | -0.314 |
| RRIRCRPPRLPRPRPRPCYRPRP | -0.256 |
| RRIRQRPPRLPRPRPRPGPSPRP | 0.242 |
| RRIRSRPPRLPRPRPRPPMNPRP | -0.347 |
| RRIRIRPPRLPRPRPRPQYLPRP | -0.346 |
| RRIRKRPPRLPRPRPRPCGWPRP | 0.179 |
| RRIRGRPPRLPRPRPRPYILPRP | -0.614 |
| RRIRIRPPRLPRPRPRPFQFPRP | -0.237 |
| RRIRSRPPRLPRPRPRPHWKPRP | 0.0398 |
| RRIRVRPPRLPRPRPRPEYTPRP | -0.0361 |
| RRIRARPPRLPRPRPRPVMGPRP | 0.177 |
| RRIRVRPPRLPRPRPRPKMMPRP | -0.313 |
| RRIRVRPPRLPRPRPRPLIFPRP | -0.317 |
| RRIRERPPRLPRPRPRPPIFPRP | -0.0515 |
| RRIRWRPPRLPRPRPRPNPAPRP | 0.098 |
| RRIRGRPPRLPRPRPRPLLMPRP | 1.22 |
| RRIRGRPPRLPRPRPRPAEHPRP | 0.352 |
| RRIRNRPPRLPRPRPRPSGVPRP | -0.0499 |

| Sequence | shrunken log2 fold change |
| --- | --- |
| RRIRSRPPRLPRPRPRPIPFPRP | -0.518 |
| RRIRERPPRLPRPRPRPQYCPRP | -0.0302 |
| RRIRWRPPRLPRPRPRPRRPPRP | 0.508 |
| RRIRERPPRLPRPRPRPKFMPRP | -0.293 |
| RRIRDRPPRLPRPRPRPLSHPRP | -0.0109 |
| RRIRSRPPRLPRPRPRPRSRPRP | 0.0341 |
| RRIRNRPPRLPRPRPRPTTAPRP | -0.0817 |
| RRIRKRPPRLPRPRPRPDSDPRP | 0.123 |
| RRIRARPPRLPRPRPRPHADPRP | 0.981 |
| RRIRTRPPRLPRPRPRPVFRPRP | -0.516 |
| RRIRHRPPRLPRPRPRPCWDPRP | 0.0881 |
| RRIRTRPPRLPRPRPRPWYNPRP | -0.325 |
| RRIRGRPPRLPRPRPRPLLRPRP | 0.485 |
| RRIRLRPPRLPRPRPRPDLNPRP | -1.09 |
| RRIRKRPPRLPRPRPRPWACPRP | 0.0099 |
| RRIRCRPPRLPRPRPRPYWHPRP | -1.53 |
| RRIRERPPRLPRPRPRPLMPPRP | -0.119 |
| RRIRCRPPRLPRPRPRPQTSPRP | -0.209 |
| RRIRHRPPRLPRPRPRPCIVPRP | -0.0379 |
| RRIRYRPPRLPRPRPRPPDDPRP | 0.141 |
| RRIRERPPRLPRPRPRPRLAPRP | 0.269 |
| RRIRDRPPRLPRPRPRPPNMPRP | 0.0281 |
| RRIRPRPPRLPRPRPRPIQTPRP | -0.0617 |
| RRIRYRPPRLPRPRPRPVRTPRP | -0.137 |
| RRIRGRPPRLPRPRPRPDWRPRP | 0.404 |

| Sequence | shrunken log2 fold change |
| --- | --- |
| RRIRRRPPRLPRPRPRPGCWPRP | 0.561 |
| RRIRMRPPRLPRPRPRPDEHPRP | 2.21 |
| RRIRMRPPRLPRPRPRPSDGPRP | -0.205 |
| RRIRTRPPRLPRPRPRPPGVPRP | 0.182 |
| RRIRIRPPRLPRPRPRPCGKPRP | -0.025 |
| RRIRCRPPRLPRPRPRPKHKPRP | -0.164 |
| RRIRDRPPRLPRPRPRPTEAPRP | 0.405 |
| RRIRIRPPRLPRPRPRPQIQPRP | -0.235 |
| RRIRNRPPRLPRPRPRPAIYPRP | -0.425 |
| RRIRSRPPRLPRPRPRPAVRPRP | -0.103 |
| RRIRRRPPRLPRPRPRPDPMPRP | 0.326 |
| RRIRTRPPRLPRPRPRPKWWPRP | 0.683 |
| RRIRPRPPRLPRPRPRPMFIPRP | -0.439 |
| RRIRVRPPRLPRPRPRPRKFPRP | 0.0551 |
| RRIRPRPPRLPRPRPRPECTPRP | 0.0119 |
| RRIRIRPPRLPRPRPRPHNCPRP | -0.0359 |
| RRIRVRPPRLPRPRPRPQWKPRP | -0.207 |
| RRIRQRPPRLPRPRPRPHNPPRP | -0.33 |
| RRIRWRPPRLPRPRPRPPLSPRP | 0.271 |
| RRIRPRPPRLPRPRPRPQDIPRP | -0.0806 |
| RRIRHRPPRLPRPRPRPWTTPRP | 0.00489 |
| RRIRRRPPRLPRPRPRPRDGPRP | 0.731 |
| RRIRHRPPRLPRPRPRPHSMPRP | -0.337 |
| RRIRCRPPRLPRPRPRPYILPRP | -1.53 |
| RRIRQRPPRLPRPRPRPIDEPRP | 3.38 |

| Sequence | shrunken log2 fold change |
| --- | --- |
| RRIRHRPPRLPRPRPRPQLKPRP | 0.114 |
| RRIRNRPPRLPRPRPRPPWHPRP | 0.129 |
| RRIRKRPPRLPRPRPRPGEGPRP | 0.0997 |
| RRIRNRPPRLPRPRPRPGAAPRP | 0.417 |
| RRIRQRPPRLPRPRPRPHIKPRP | -0.878 |
| RRIRHRPPRLPRPRPRPRWEPRP | 0.136 |
| RRIRCRPPRLPRPRPRPTMEPRP | -0.088 |
| RRIRFRPPRLPRPRPRPAVIPRP | -0.0689 |
| RRIRPRPPRLPRPRPRPVKLPRP | -0.0669 |
| RRIRPRPPRLPRPRPRPCPTPRP | 0.0557 |
| RRIRGRPPRLPRPRPRPKYQPRP | 0.159 |
| RRIRQRPPRLPRPRPRPDQDPRP | 0.192 |
| RRIRNRPPRLPRPRPRPVARPRP | 0.23 |
| RRIRCRPPRLPRPRPRPFWHPRP | -0.0854 |
| RRIRWRPPRLPRPRPRPCTRPRP | -0.161 |
| RRIRYRPPRLPRPRPRPSHNPRP | -0.628 |
| RRIRERPPRLPRPRPRPHDQPRP | 0.0804 |
| RRIRDRPPRLPRPRPRPQFWPRP | 0.345 |
| RRIRLRPPRLPRPRPRPPMDPRP | 0.0462 |
| RRIRVRPPRLPRPRPRPKMYPRP | -0.252 |
| RRIRARPPRLPRPRPRPIGDPRP | 0.24 |
| RRIRKRPPRLPRPRPRPNSAPRP | 0.393 |
| RRIRHRPPRLPRPRPRPIWIPRP | 0.0409 |
| RRIRHRPPRLPRPRPRPWMVPRP | -0.0202 |
| RRIRWRPPRLPRPRPRPEGQPRP | 4.45 |

| Sequence | shrunken log2 fold change |
| --- | --- |
| RRIRHRPPRLPRPRPRPLRLPRP | 0.199 |
| RRIRIRPPRLPRPRPRPFWEPRP | 0.366 |
| RRIRNRPPRLPRPRPRPWPVPRP | -0.153 |
| RRIRTRPPRLPRPRPRPQQTPRP | 0.0814 |
| RRIRGRPPRLPRPRPRPELGPRP | 1.45 |
| RRIRCRPPRLPRPRPRPQEMPRP | -0.627 |
| RRIRRRPPRLPRPRPRPMLAPRP | 0.983 |
| RRIRSRPPRLPRPRPRPPKRPRP | 0.626 |
| RRIRARPPRLPRPRPRPWKPPRP | 4.26e-05 |
| RRIRQRPPRLPRPRPRPYCFPRP | -1 |
| RRIRMRPPRLPRPRPRPYHPPRP | -0.423 |
| RRIRARPPRLPRPRPRPVPGPRP | 0.672 |
| RRIRSRPPRLPRPRPRPIRWPRP | 0.0723 |
| RRIRYRPPRLPRPRPRPSKEPRP | -0.0167 |
| RRIRERPPRLPRPRPRPHRNPRP | -0.869 |
| RRIRTRPPRLPRPRPRPMETPRP | 0.0774 |
| RRIRRRPPRLPRPRPRPWIQPRP | 0.0321 |
| RRIRFRPPRLPRPRPRPTFNPRP | -0.279 |
| RRIRIRPPRLPRPRPRPHKVPRP | -0.0742 |
| RRIRERPPRLPRPRPRPPLAPRP | 0.433 |
| RRIRTRPPRLPRPRPRPNTMPRP | -0.675 |
| RRIRARPPRLPRPRPRPQPHPRP | 0.347 |
| RRIRCRPPRLPRPRPRPFLFPRP | -0.291 |
| RRIRIRPPRLPRPRPRPERVPRP | 0.089 |
| RRIRMRPPRLPRPRPRPCPLPRP | -0.0594 |
